Reference: patent publication US20060246470A1 (published 2006)
Blank lines part the entries; values can stand above or below the binder they belong to.

Columns and labels:
[1] = biological target: T1, GST-ER, P03372
T1 chain: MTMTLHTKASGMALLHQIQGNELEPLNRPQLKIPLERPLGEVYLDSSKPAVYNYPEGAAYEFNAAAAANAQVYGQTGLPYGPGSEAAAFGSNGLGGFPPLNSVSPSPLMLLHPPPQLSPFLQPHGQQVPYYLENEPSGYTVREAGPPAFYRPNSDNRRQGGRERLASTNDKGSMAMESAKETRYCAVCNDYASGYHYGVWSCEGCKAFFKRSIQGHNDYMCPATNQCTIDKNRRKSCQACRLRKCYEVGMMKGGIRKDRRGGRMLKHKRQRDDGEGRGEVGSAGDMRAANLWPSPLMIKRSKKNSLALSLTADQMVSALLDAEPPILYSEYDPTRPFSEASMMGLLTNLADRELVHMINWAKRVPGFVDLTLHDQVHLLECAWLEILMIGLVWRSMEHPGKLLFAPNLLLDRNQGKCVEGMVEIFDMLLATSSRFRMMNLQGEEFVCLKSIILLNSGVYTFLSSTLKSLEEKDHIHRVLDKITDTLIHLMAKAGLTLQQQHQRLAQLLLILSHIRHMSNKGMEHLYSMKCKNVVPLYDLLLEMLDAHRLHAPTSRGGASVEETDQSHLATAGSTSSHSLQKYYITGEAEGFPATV

[2] = biological target: T2, GST-RhoGDI (aa:1-81), P52565
T2 chain: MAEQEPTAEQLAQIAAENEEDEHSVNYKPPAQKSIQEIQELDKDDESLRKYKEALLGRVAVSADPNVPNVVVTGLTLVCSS

[3] = biological target: T3, GST-RhoGDI, P52565
T3 chain: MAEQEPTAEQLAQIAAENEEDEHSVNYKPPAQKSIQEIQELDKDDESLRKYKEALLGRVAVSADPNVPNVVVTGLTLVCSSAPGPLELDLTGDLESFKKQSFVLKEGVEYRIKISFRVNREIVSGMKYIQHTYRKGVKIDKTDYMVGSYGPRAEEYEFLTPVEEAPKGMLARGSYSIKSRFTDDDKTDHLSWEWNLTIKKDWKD

[4] = biological target: T4, HER2, endogenous in MCF-7 cells (human, UniProt P04626 23-1255); test: immunoprecipitation and immunoblot, MCF-7 cells
T4 construct: also called HER-2/neu
Description: In Panel B, immunoprecipitation of E or T treated MCF-7 cells was performed followed by immunoblot analysis.

[5] = biological target: T5, in vitro translated, 35S-incorporated ER (UniProt P03372 1-595, 35S-incorporated (in vitro translated)); test: GST pull-down with or without E2 or Tamoxifen (FIG. 29)
T5 construct: also called ERα
T5 sequence (looked up): T1 chain

B1: GST-p300 HAT (protein)
chain: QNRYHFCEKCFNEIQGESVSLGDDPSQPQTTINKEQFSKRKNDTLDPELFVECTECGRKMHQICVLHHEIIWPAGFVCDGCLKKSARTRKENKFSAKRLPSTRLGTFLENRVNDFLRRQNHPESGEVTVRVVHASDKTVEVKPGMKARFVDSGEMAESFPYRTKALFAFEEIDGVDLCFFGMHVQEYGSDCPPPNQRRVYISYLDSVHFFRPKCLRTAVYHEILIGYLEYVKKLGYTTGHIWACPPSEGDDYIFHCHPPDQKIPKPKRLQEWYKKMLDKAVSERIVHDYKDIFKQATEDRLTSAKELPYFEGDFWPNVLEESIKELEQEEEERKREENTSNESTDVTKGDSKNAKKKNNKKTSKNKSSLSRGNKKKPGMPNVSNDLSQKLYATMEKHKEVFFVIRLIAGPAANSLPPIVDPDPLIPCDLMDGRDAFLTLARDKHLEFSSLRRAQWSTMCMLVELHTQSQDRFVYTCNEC
competitive in vitro acetylation assay [1]: Purified GST-ER was acetylated by GST-p300HAT in the presence of increasing amount of GST-RhoGDI. | in vitro acetylation assay (14C-acetyl-CoA, SDS-PAGE, autoradiography) [2]: The result indicates that N-terminal of RhoGDI contains acetylation site(s). | in vitro acetylation assay (14C-acetyl-CoA, SDS-PAGE, autoradiography) [3]: RhoGDI, like ERα, is acetylated by p300.

binding result [4]: binds
B2: EBP50 (ezrin binding protein 50), endogenous in MCF-7 cells (other, human, UniProt O14745 2-358, looked up)
chain: SADAAAGAPLPRLCCLEKGPNGYGFHLHGEKGKLGQYIRLVEPGSPAEKAGLLAGDRLVEVNGENVEKETHQQVVSRIRAALNAVRLLVVDPETDEQLQKLGVQVREELLRAQEAPGQAEPPAAAEVQGAGNENEPREADKSHPEQRELRPRLCTMKKGPSGYGFNLHSDKSKPGQFIRSVDPDSPAEASGLRAQDRIVEVNGVCMEGKQHGDVVSAIRAGGDETKLLVVDRETDEFFKKCRVIPSQEHLNGPLPVPFTNGEIQKENSREALAEAALESPRPALVRSASSDTSEELNSQDSPPKQDSTAPSSTSSSDPILDFNISLAMAKERAHQKRSSKRAPQMDWSKKNELFSNL
notes: also called NHE-RF; SLC9A3R1

binding result [5]: no binding
B3: in vitro translated RhoGDI (other, UniProt P52565 1-204, looked up)
chain: T3 chain
